Consider 67 sequences from the supplement of paper PMC10724198.

This data set has as its system Saccharomyces cerevisiae. The data set can be described thus: protein stability index of tFT-peptide fusion (C-terminal peptide) (PSI (0-1 scale)); higher = more stable (slower turnover). The settings on record: temperature: 30 C. How it is done: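 MPS profiling in S. cerevisiae of the yeast C-terminome library: the last 12 aa of each annotated ORF are fused to the C-terminus of a sfGFP-mCherry timer, after a GGGS linker. Cells are FACS-sorted into 8 mCherry/sfGFP bins and deep-sequenced. PSI runs from 0 (unstable) to 1 (stable); wild type and das1Δ backgrounds, two technical replicates each.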

Where [1] appears, read: genetic background: das1 deletion.

± gives the standard deviation of the averaged measurements.

For the sequence LKQIEMISGFSL [ADF1 C-terminal 12 aa], the protein stability index reads like this: under setting [1], 0.707 ± 0.012; (genetic background: wild type) 0.683 ± 0.053.

Regarding “LKTTPCLTHWYN [YIR030W-A C-terminal 12 aa]”, the protein stability index runs as follows: under setting [1], 0.699 ± 0.022; (genetic background: wild type) 0.663 ± 0.033.

On to LLCRDSSREVGE [YBL113C C-terminal 12 aa], for which the protein stability index under setting [1] came out at 0.702 ± 0.022 and the protein stability index (genetic background: wild type) came out at 0.673 ± 0.014.

Regarding LLEGIIIKLFLY [YDL011C C-terminal 12 aa], the protein stability index reads like this: under setting [1], 0.423 ± 0.0049; (genetic background: wild type) 0.174 ± 0.0066.

Take “LLGVGIAFYQDR [YJR112W-A C-terminal 12 aa]”: the protein stability index turned out to be 0.706 ± 0.033 under setting [1] and 0.678 ± 0.018 (genetic background: wild type).

With LLLKVEKKGSKK [HTZ1 C-terminal 12 aa], the protein stability index by setting is: under setting [1], 0.706 ± 0.034; (genetic background: wild type) 0.716 ± 0.041.

On to LLLQKSGTYLLL [ARV1 C-terminal 12 aa], for which the protein stability index was 0.639 ± 0.032 under setting [1] and 0.638 ± 0.0066 (genetic background: wild type).

As to LLLSIFSILIVL [YPS7 C-terminal 12 aa], the protein stability index under setting [1] turned out to be 0.321 ± 0.0053 and the protein stability index (genetic background: wild type) is 0.2802 ± 0.0025.

As for LLMVSVVNFVPL [YPL182C C-terminal 12 aa], the protein stability index runs as follows: under setting [1], 0.474 ± 0.034; (genetic background: wild type) 0.479 ± 0.0093.

For LLNDIKRRNMGR [MET28 C-terminal 12 aa], the protein stability index reads like this: under setting [1], 0.6834 ± 0.0045; (genetic background: wild type) 0.723 ± 0.12.

Consider LLRNGDIDTITK [COG3 C-terminal 12 aa], for which the protein stability index under setting [1] was determined as 0.7045 ± 0.0048 and the protein stability index (genetic background: wild type) was 0.68 ± 0.016.

On to LLYLYDNDHTST [GPI19 C-terminal 12 aa], for which the protein stability index by setting is: under setting [1], 0.72 ± 0.058; (genetic background: wild type) 0.6907 ± 0.0034.

As to LMAKRFQTGSLK [RTS3 C-terminal 12 aa], the protein stability index came out at 0.7028 ± 0.00076 under setting [1] and 0.716 ± 0.043 (genetic background: wild type).

As to LMFSKLGRYLFN [NSG1 C-terminal 12 aa], the protein stability index reads like this: under setting [1], 0.6857 ± 0.0016; (genetic background: wild type) 0.655 ± 0.021.

Consider LMLGVAYYLLNE [CYB5 C-terminal 12 aa], for which the protein stability index stood at 0.624 ± 0.044 under setting [1] and 0.649 ± 0.048 (genetic background: wild type).

Consider LMVENFRKEYII [PTI1 C-terminal 12 aa], for which the protein stability index was 0.7001 ± 0.002 under setting [1] and 0.547 ± 0.031 (genetic background: wild type).

For the sequence LMYIYQAFTTQD [GDT1 C-terminal 12 aa], the protein stability index runs as follows: under setting [1], 0.684 ± 0.011; (genetic background: wild type) 0.663 ± 0.036.

As to LNAFQHPIVEFQ [YEL028W C-terminal 12 aa], the protein stability index by setting is: under setting [1], 0.755 ± 0.013; (genetic background: wild type) 0.69 ± 0.022.

Regarding LNDIGDPTKTVQ [YPL025C C-terminal 12 aa], the protein stability index reads like this: under setting [1], 0.689 ± 0.0087; (genetic background: wild type) 0.705 ± 0.0072.

Take LNEYSKDPPGNN [RAD18 C-terminal 12 aa]: the protein stability index is, setting by setting: under setting [1], 0.704 ± 0.018; (genetic background: wild type) 0.707 ± 0.021.

Regarding LNNFKFKTNSKQ [XBP1 C-terminal 12 aa], the protein stability index came out at 0.713 ± 0.027 under setting [1] and 0.679 ± 0.022 (genetic background: wild type).

Take LNNTAASTGPGR [YKE2 C-terminal 12 aa]: the protein stability index by setting is: under setting [1], 0.684 ± 0.011; (genetic background: wild type) 0.655 ± 0.0052.

Sequence LNRKEESDSFVA [CHS3 C-terminal 12 aa] registered a protein stability index under setting [1] of 0.6769 ± 0.0027 and a protein stability index (genetic background: wild type) of 0.679 ± 0.017.

Consider LNTSNECCTSDD [BIL2 C-terminal 12 aa], for which the protein stability index is, setting by setting: under setting [1], 0.692 ± 0.023; (genetic background: wild type) 0.669 ± 0.016.

For “LNTYVILFYTVY [YOL166W-A C-terminal 12 aa]”, the protein stability index by setting is: under setting [1], 0.273 ± 0.046; (genetic background: wild type) 0.263 ± 0.0054.

Regarding “LPHFSHLHVHHD [YHR056W-A C-terminal 12 aa]”, the protein stability index is 0.7294 ± 0.0032 under setting [1] and 0.719 ± 0.032 (genetic background: wild type).

Take LPPGLNSKKNIK [EAP1 C-terminal 12 aa]: the protein stability index runs as follows: under setting [1], 0.69532 ± 0.00062; (genetic background: wild type) 0.658 ± 0.01.

Turning to LPQRSIPCAIYP [YCR108C C-terminal 12 aa], the protein stability index runs as follows: under setting [1], 0.687 ± 0.012; (genetic background: wild type) 0.7045 ± 0.0036.

For the sequence LSAGFGIGEFML [YGR079W C-terminal 12 aa], the protein stability index by setting is: under setting [1], 0.72 ± 0.023; (genetic background: wild type) 0.692 ± 0.036.

LSAIVFLGTSSH [AVT5 C-terminal 12 aa]: the protein stability index turned out to be 0.7155 ± 0.0055 under setting [1] and 0.704 ± 0.021 (genetic background: wild type).

Consider LSDKNPEFKYMY [TNA1 C-terminal 12 aa], for which the protein stability index reads like this: under setting [1], 0.686 ± 0.0071; (genetic background: wild type) 0.706 ± 0.0095.

For LSEASKLASKPL [COX15 C-terminal 12 aa], the protein stability index was 0.701 ± 0.0094 under setting [1] and 0.704 ± 0.039 (genetic background: wild type).

Regarding LSLRSLQIMGRN [DSS4 C-terminal 12 aa], the protein stability index is, setting by setting: under setting [1], 0.6993 ± 0.00084; (genetic background: wild type) 0.726 ± 0.024.

Turning to LSSKKQTVMDKE [POL5 C-terminal 12 aa], the protein stability index runs as follows: under setting [1], 0.6463 ± 0.0045; (genetic background: wild type) 0.749 ± 0.051.

Regarding LSTKNIDDGMIS [COG7 C-terminal 12 aa], the protein stability index is 0.706 ± 0.025 under setting [1] and 0.679 ± 0.052 (genetic background: wild type).

Sequence LVEILDCEIRTL [MIC60 C-terminal 12 aa] had a protein stability index under setting [1] of 0.6827 ± 0.0058 and a protein stability index (genetic background: wild type) of 0.6707 ± 0.0035.

As for LVFALLTCFEDG [YDR209C C-terminal 12 aa], the protein stability index by setting is: under setting [1], 0.481 ± 0.0089; (genetic background: wild type) 0.505 ± 0.014.

In the case of LVGGGIKKSGKK [TMA7 C-terminal 12 aa], the protein stability index reads like this: under setting [1], 0.67 ± 0.016; (genetic background: wild type) 0.736 ± 0.011.

On to LVHFLGLILNNF [YNL171C C-terminal 12 aa], for which the protein stability index was 0.68 ± 0.018 under setting [1] and 0.624 ± 0.014 (genetic background: wild type).

Consider LVHIKMENGIVS [IZH2 C-terminal 12 aa], for which the protein stability index by setting is: under setting [1], 0.65319 ± 0.00027; (genetic background: wild type) 0.693 ± 0.019.

As for LYGPSKTRKFFD [VMA4 C-terminal 12 aa], the protein stability index was determined as 0.724 ± 0.027 under setting [1] and 0.692 ± 0.011 (genetic background: wild type).

Consider LYGQRFLATGFQ [AIM19 C-terminal 12 aa], for which the protein stability index was 0.714 ± 0.0097 under setting [1] and 0.705 ± 0.024 (genetic background: wild type).

Take LYLLLARVFEIW [SNF11 C-terminal 12 aa]: the protein stability index reads like this: under setting [1], 0.567 ± 0.059; (genetic background: wild type) 0.5614 ± 0.0025.

For LYQCRMPCLYSI [YGL193C C-terminal 12 aa], the protein stability index amounted to 0.659 ± 0.026 under setting [1] and 0.586 ± 0.014 (genetic background: wild type).

The sequence LYWDPSWITRQL [SNF8 C-terminal 12 aa] returned a protein stability index under setting [1] of 0.716 ± 0.019 and a protein stability index (genetic background: wild type) of 0.621 ± 0.043.

With MDPMSPLNKDVS [YMR196W C-terminal 12 aa], the protein stability index is, setting by setting: under setting [1], 0.692 ± 0.0081; (genetic background: wild type) 0.73 ± 0.05.

Take MFTSDKKTEQTT [URC2 C-terminal 12 aa]: the protein stability index runs as follows: under setting [1], 0.708 ± 0.0052; (genetic background: wild type) 0.695 ± 0.011.

As to MGSSRRTSLDFF [YBR071W C-terminal 12 aa], the protein stability index reads like this: under setting [1], 0.7242 ± 0.0015; (genetic background: wild type) 0.693 ± 0.025.

For the sequence MIDELDYNINFA [UGA3 C-terminal 12 aa], the protein stability index stood at 0.7 ± 0.013 under setting [1] and 0.791 ± 0.076 (genetic background: wild type).

Take MILKVSLECAVS [YDL009C C-terminal 12 aa]: the protein stability index is, setting by setting: under setting [1], 0.468 ± 0.0021; (genetic background: wild type) 0.481 ± 0.016.

Take MKKPRKSKKAAN [KRE33 C-terminal 12 aa]: the protein stability index was found to be 0.716 ± 0.018 under setting [1] and 0.714 ± 0.039 (genetic background: wild type).

MKTRLERERGLV [PTC4 C-terminal 12 aa]: the protein stability index by setting is: under setting [1], 0.694 ± 0.027; (genetic background: wild type) 0.638 ± 0.019.

On to MMAVDTDVDMDA [YPL071C C-terminal 12 aa], for which the protein stability index is 0.668 ± 0.012 under setting [1] and 0.673 ± 0.014 (genetic background: wild type).

Take MMTRENMDMGER [RRP3 C-terminal 12 aa]: the protein stability index runs as follows: under setting [1], 0.669 ± 0.044; (genetic background: wild type) 0.649 ± 0.027.

In the case of MNAAENEVKKEK [SUR2 C-terminal 12 aa], the protein stability index reads like this: under setting [1], 0.688 ± 0.016; (genetic background: wild type) 0.669 ± 0.027.

With MNGIPREAFVQF [MEX67 C-terminal 12 aa], the protein stability index is 0.68 ± 0.0078 under setting [1] and 0.701 ± 0.022 (genetic background: wild type).

Turning to MSNSNSVCCTLM [STE18 C-terminal 12 aa], the protein stability index runs as follows: under setting [1], 0.736 ± 0.01; (genetic background: wild type) 0.7027 ± 0.0034.

Consider MSSTDWVTKPTY [AFG1 C-terminal 12 aa], for which the protein stability index by setting is: under setting [1], 0.6977 ± 0.0026; (genetic background: wild type) 0.678 ± 0.017.

For MTKISILKPFLH [CDC6 C-terminal 12 aa], the protein stability index under setting [1] worked out at 0.711 ± 0.0076 and the protein stability index (genetic background: wild type) was 0.6156 ± 0.0052.

Take MYSSKDNPASPK [TAF1 C-terminal 12 aa]: the protein stability index came out at 0.693 ± 0.021 under setting [1] and 0.674 ± 0.017 (genetic background: wild type).

For the sequence NAEKAAGQKKED [YLL053C C-terminal 12 aa], the protein stability index reads like this: under setting [1], 0.695 ± 0.034; (genetic background: wild type) 0.658 ± 0.018.

In the case of NAIEEELAKMKL [THR4 C-terminal 12 aa], the protein stability index is 0.6922 ± 0.0025 under setting [1] and 0.692 ± 0.035 (genetic background: wild type).

NDTIKLNQSIYS [ASK10 C-terminal 12 aa]: the protein stability index was 0.701 ± 0.02 under setting [1] and 0.7048 ± 0.0015 (genetic background: wild type).

Take NEALVKTTKQKL [LPX1 C-terminal 12 aa]: the protein stability index by setting is: under setting [1], 0.703 ± 0.013; (genetic background: wild type) 0.704 ± 0.018.

In the case of NEEMAEISNPFR [FEN2 C-terminal 12 aa], the protein stability index runs as follows: under setting [1], 0.699 ± 0.019; (genetic background: wild type) 0.711 ± 0.026.

In the case of NEEMIRKLKAAK [JID1 C-terminal 12 aa], the protein stability index is, setting by setting: under setting [1], 0.674 ± 0.015; (genetic background: wild type) 0.662 ± 0.021.

In the case of NEPTNSDIVELD [UBA2 C-terminal 12 aa], the protein stability index reads like this: under setting [1], 0.693 ± 0.023; (genetic background: wild type) 0.676 ± 0.019.
